The target of test [1] is T1, Active MMP-9 enzyme (UniProt P14780 107-707, limits assumed).
T1 construct: Bought as 'Active MMP-9 enzyme' from Calbiochem
Put plainly: enzyme inhibition of MMP-9 (FRET substrate peptide cleavage, inhibitory constants derived from the curves). Here is the method:
FIG. 4 illustrates ChePep-5 regulation of MMP-9 via FRET assay. ChePep-5 is composed of a AFTA combined with a peptide having SEQ ID No. 7. ChePep-5 was incubated with MP-9 for 10 minutes to effect binding. This mixture was added to the FRET substrate peptide in reaction buffer. Fluorescence measurements were made at the indicated times. The curves represent ChepPep-5: MMP-9 molar stoichiometries of 0:1 (closed circles), 0.1:1 (open circles), 0.2:1 (closed squares), 0.3:1 (open squares). Excitation was at 365 nm, and the emission was fixed at 450 nm.
The second assay utilized the technique of fluorescence resonance energy transfer (FRET). The substrate peptide (Calbiochem #444221) comprised seven amino acids, coupled to a carboxyl terminal dinitrophenyl acceptor, and an amino terminal 2-aminobenzo-anthraniloyl (Abz) moiety donor. Cleavage of this substrate by MMP-9 results in the liberation of a fluorescent product (365 nm excitation, 450 nm emission). […] MMP at a concentration of 0.1 μM was mixed with varying amounts of chelating peptide (0, 0.01, 0.02, 0.04, and 0.1 μM) and incubated at 25° C. for 10 minutes to effect binding. The protein mixture was added to the peptide substrate and mixed quickly. Fluorescence intensity as a function of time was measured with a Dynex MFX fluorescence microtiter plate reader. Fluorescence intensity was related back to moles of peptide cleaved by producing a standard curve with an Abz containing non-FRET peptide. Inhibitory constants were derived from the curves and are listed below in Table 2.

The target in test [2] is T1, Active MMP-9 enzyme. Put plainly: enzyme inhibition of MMP-9 (fluorescent substrate cleavage, inhibitory constants derived from the curves). Here is the method: Two enzymatic assays were performed. The first assay measured the enzymatic hydrolysis of fluoresceinated collagen by MMP-9 as a function of time. Fluoresceinated collagen (Molecular Probes, Inc.), at a concentration of 5 μM was added to reaction buffer (50 mM Tris-HCl (pH 7.6), 150 mM NaCl, 5 mM CaCl₂, 0.1 mM NaN₃) and was placed into a Spectrosil quartz fluorometer cuvette. MMP at a concentration of 0.1 μM was mixed with varying amounts of chelating peptide having SEQ ID No. 4 or 6 and incubated at 25° C. for 10 minutes to effect binding. The protein mixture was added to the collagen substrate and mixed quickly. Fluorescence emission intensity at 520 nm was measured as a function of time (excitation wavelength 495 nm) in a Shimadzu RF5301 fluorometer. The fluorescein release assay was used to determine the inhibitory constant (Kᵢ) of the chelating peptide inhibitor ([I]) according to Segel (1993) via the use of Dixon plots (1/v vs. [I]), such that: […]

Primed or numbered codes have the meaning given here. Where no end group is shown, it is not given here. PSDE = pyridine disulfide ethylenediaminetetraacetic acid; AFTA = 2-amino-4-fluorophenol N,N,O-triacetic acid; AFTA″ = not defined here

T1 sequence (P14780 107-707 limits assumed): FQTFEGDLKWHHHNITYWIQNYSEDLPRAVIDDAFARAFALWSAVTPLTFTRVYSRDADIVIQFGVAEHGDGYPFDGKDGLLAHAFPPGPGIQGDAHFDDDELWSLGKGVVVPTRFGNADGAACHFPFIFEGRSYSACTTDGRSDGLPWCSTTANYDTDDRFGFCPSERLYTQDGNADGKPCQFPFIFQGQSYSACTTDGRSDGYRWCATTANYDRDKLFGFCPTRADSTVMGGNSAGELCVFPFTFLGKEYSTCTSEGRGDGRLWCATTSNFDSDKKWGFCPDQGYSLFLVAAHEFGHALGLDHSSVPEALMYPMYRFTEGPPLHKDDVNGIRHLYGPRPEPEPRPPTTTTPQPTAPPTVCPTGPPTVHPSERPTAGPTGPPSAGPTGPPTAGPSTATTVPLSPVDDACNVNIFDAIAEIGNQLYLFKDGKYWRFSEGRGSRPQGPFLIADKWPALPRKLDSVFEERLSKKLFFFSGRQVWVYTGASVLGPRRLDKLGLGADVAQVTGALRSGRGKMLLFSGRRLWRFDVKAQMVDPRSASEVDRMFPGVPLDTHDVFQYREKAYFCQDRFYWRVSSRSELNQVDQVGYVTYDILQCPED

B1: ChePep-5 (AFTA combined with a peptide having SEQ ID No. 7) (peptide)
peptide: {AFTA}-VHTHLCD
notes: also called ChepPep-5
The term Ki denotes the equilibrium dissociation constant of an inhibitor or competing ligand from its target. Low values mean a stronger hold on the target, high ones a looser hold on the target. With B1, the Ki with Active MMP-9 enzyme [1] worked out at 221 µM.

B2: ChePep-3 (PSDE combined with a peptide having SEQ ID No. 6) (peptide)
peptide: IYTAC(PSDE)MSAV
modifications: not fully specified (C-terminus)
In turn, B2 gave a Ki in the test with Active MMP-9 enzyme [1] of 350 µM.

B3: ChePep-6 (AFTA combined with a peptide having SEQ ID No. 8) (peptide)
peptide: {AFTA″}-CTCVP
modifications: cysteine pairing not given here; reading uncertain
notes: also called ChepPep-6; chelating peptide (CP)
For the molecule B3, in the test with Active MMP-9 enzyme [1], the inhibitory constant (Ki) was 125 µM.

B4: ChePep-1 (PSDE coupled with the peptide having SEQ ID No. 4) (peptide)
peptide: C(PSDE)SAVPVH
notes: Synthetic TIMP-derived peptide covalently coupled to a small-molecule zinc chelator (PSDE); also called ChepPep-1; zinc chelating peptide
In the test with Active MMP-9 enzyme [2], B4 gave an inhibition constant Ki of 98 µM.

B5: ChePep-2 (IDA coupled with a peptide having SEQ ID No. 5) (peptide)
peptide: D(IDA)SAVPVH-NH2
As for B5, the affinity in the test with Active MMP-9 enzyme [1], expressed as Ki, was 67 µM.

Values taken from US20030073808A1 (KIMBERLY CLARK WORLDWIDE, published 2003).
